Test results from the supplement of paper PMC10567573.
± gives the standard deviation.

Experiment: protein stability index of a GFP-peptide fusion (GPS, HEK-293T) (PSI 1-6); higher = more stable
Details: c terminus: a fixed tail appended
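Further: 24-mer peptide tiles fused after GFP, lentivirally expressed, FACS-sorted into six equal bins by GFP/DsRed ratio, decoded by Illumina sequencing, PSI is the read-weighted mean bin number.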

Row | Sequence | protein stability index (treatment: DMSO) | protein stability index (treatment: MLN4924 1 uM, 8 h)
1 | FGGTGIPFGESNGNGVHVCNVKYK [KLHDC10] | 2.52 ± 0.35 | 3.06 ± 0.51
2 | DVAVHMPCLGHTFNAGIQQAFQLP [ZBED1] | 2.53 ± 0.36 | 2.8 ± 0.36
3 | ISFTLYLIGFCMFVLSLVKKHYRL [CDS2] | 2.29 ± 0.48 | 2.44 ± 0.53
4 | LLKPIPEYSPEEESEPPAPNIRNM [TRAF3IP2] | 5.12 ± 0.11 | 5.22 ± 0.37
5 | EEDDGRGRGLLRWDSFSAWLHCVC [DENND6A] | 3.06 ± 0.25 | 3.04 ± 0.29
6 | SLQNSLECAMETTEEQTRQERQGP [NECAB1] | 5.09 ± 0.17 | 5.22 ± 0.25
7 | KIWPEIKVPRPDALDNESWGFVHP [RETREG3] | 2.68 ± 0.48 | 2.57 ± 0.54
8 | ERCLHMFLQEEAIDRNYVPGKSLA [SNX12] | 2.97 ± 0.31 | 3.05 ± 0.26
9 | SNFDDFPESDILQPVPNTTEPDYK [STK38L] | 5.59 ± 0.25 | 5.24 ± 0.29
10 | PDTQLLKFQLNKYTGEIKISENLD [PCDHGA10] | 3.43 ± 0.44 | 3.66 ± 0.17
11 | RGLRGEPGPQGSAGQRGEPGPKGD [EMID1] | 5.19 ± 0.4 | 5.41 ± 0.6
12 | NDVRQAARSAASYMLFDPKDSVMQ [P3H4] | 3.97 ± 0.12 | 4.08 ± 0.39
13 | AIQLLSRMEYVHSKNLIYRDVKPE [CSNK1G1] | 2.28 ± 0.2 | 2.33 ± 0.31
14 | PQLAGKWQVLCMLSLCCWGWVSGQ [PCDHGC5] | 2.88 ± 0.93 | 2.85 ± 0.43
15 | FIIFGTMEEMQNKAVVFFVFYLWS [HACD3] | 2.8 ± 0.69 | 2.75 ± 0.13
16 | AILEMKWKVRAEKEACQREKELPA [ZBED2] | 3.47 ± 0.29 | 3.56 ± 0.55
17 | LSRTNEELLWKLQTGDPTSPIKLS [MTUS2] | 3.49 ± 0.12 | 3.35 ± 0.25
18 | LQRLRENAAHLGDKRRDLAHLAAE [TRIM39] | 4.13 ± 0.31 | 3.82 ± 0.28
19 | FFYGETVTDYFFTLVQREEPLRIL [CDS2] | 2.73 ± 0.66 | 2.17 ± 0.46
20 | HSSSRDSHLSNGLDPVAETAIRQL [C2CD2L] | 4.42 ± 0.35 | 4.53 ± 0.18
21 | SEEELTHIFGDLDSYIPLHEDLLT [NET1] | 3.88 ± 0.19 | 4.03 ± 0.33
22 | LFENSLCRLTHIPAYKVSGDKNEE [ZER1] | 4.05 ± 0.17 | 4.04 ± 0.12
23 | SQGLAREQHAGTSEGLHLAGTAGH [FBF1] | 4.76 ± 0.16 | 4.84 ± 0.36

Row | Sequence | protein stability index (treatment: DMSO) | protein stability index (treatment: MLN4924 1 uM, 8 h)
24 | RTKQVLHTFKTRFTQPLLPAFTVW [FSD1] | 2.53 ± 0.32 | 2.44 ± 0.46
25 | AAQSTKSPWNFLGDELYEQSDEEQ [CLPTM1] | 5.25 ± 0.19 | 5.35 ± 0.18
26 | KELVEFAQDDDRLREERKKAKKNK [CLINT1] | 5.49 ± 0.096 | 5.53 ± 0.17
27 | SVLNGKFANLIKEFVIIDCRYPYE [CDC25A] | 2.63 ± 0.36 | 2.55 ± 1
28 | CLHHVHYLATEYLETHFRDVSSTE [GAN] | 2.37 ± 0.23 | 2.52 ± 0.54
29 | QPFYHDDSYTATGYGRAPGGLSLH [JUNB] | 3.18 ± 0.39 | 3.36 ± 0.24
30 | ENHPDVFSDSSMDHFQKFLPTVGG [MYOZ1] | 2.99 ± 0.5 | 3.34 ± 0.53
31 | RCLIWGRKPKVIECSYTSADGQRH [DHCR7] | 2.61 ± 0.33 | 2.77 ± 0.33
32 | VTGLMEATQMMVDIDGDVLVFLEL [RHOBTB2] | 3.31 ± 0.2 | 3.29 ± 0.8
33 | LNMFLAIINDTYSEVKEELAGQKD [PKD2L1] | 2.21 ± 0.3 | 2.37 ± 0.43
34 | LNFWNKQDTLELESPSLTSTPVCS [MYBL2] | 3.58 ± 0.12 | 3.63 ± 0.2
35 | EKRAKRLSSAPSSRAEPIRTTVFQ [ZMAT5] | 3.74 ± 0.54 | 3.86 ± 0.061
36 | EFCEPAFVVGNCLQIASDSHQYDR [PCMTD1] | 3.5 ± 0.49 | 3.51 ± 0.31
37 | YVDVVFANRPDPNTPMEETVRAMT [KCNAB2] | 2.66 ± 0.34 | 3.09 ± 0.7
38 | KQKYFYKGGLVWDENSSDGRYVKE [CLK3] | 3.53 ± 0.2 | 3.62 ± 0.043
39 | QQFKQYSRHVTTRAALTYTSLEIT [M1AP] | 2.44 ± 0.18 | 2.6 ± 0.3
40 | ALVRTRMQAQASIEGAPEVTMSSL [SLC25A25] | 3.6 ± 0.34 | 3.59 ± 0.33
41 | WFESVLEPGYIDSEIGTSDQIVPE [TRIB1] | 4.44 ± 0.2 | 4.09 ± 0.18
42 | VLVEKYGWPHEDAAQFTDFLIPML [SRPK2] | 2.38 ± 0.26 | 2.4 ± 0.26
43 | EATNGREGLLRFSSWPFSIQDVVQ [AUP1] | 2.93 ± 0.21 | 3.09 ± 0.37
44 | EMSKDALPEKACQLDSRYWRITNA [FBXO3] | 3.55 ± 0.24 | 3.5 ± 0.16
45 | KYESVLQLGRALTAHLYSLLQTQH [ARFIP2] | 3.09 ± 0.24 | 2.85 ± 0.092
